{"source": "patent US20020058637", "key": {"[1]": {"target": "tau-protein extracted from bovine brain followed by purification (not phosphorylated by TPK-I) (UniProt P29172)", "sequence (P29172 2-448)": "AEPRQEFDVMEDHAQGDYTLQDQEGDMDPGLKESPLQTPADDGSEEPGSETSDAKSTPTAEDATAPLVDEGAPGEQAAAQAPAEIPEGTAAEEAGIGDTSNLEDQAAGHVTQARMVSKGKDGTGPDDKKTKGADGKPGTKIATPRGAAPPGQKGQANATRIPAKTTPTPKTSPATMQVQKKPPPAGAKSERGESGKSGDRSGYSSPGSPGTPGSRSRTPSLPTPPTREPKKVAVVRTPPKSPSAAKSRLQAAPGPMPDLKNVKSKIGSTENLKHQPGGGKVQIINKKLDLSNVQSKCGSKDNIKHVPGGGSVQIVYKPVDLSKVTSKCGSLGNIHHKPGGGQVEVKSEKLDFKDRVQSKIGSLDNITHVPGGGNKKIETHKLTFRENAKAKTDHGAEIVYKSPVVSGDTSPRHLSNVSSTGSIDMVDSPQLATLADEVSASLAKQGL"}, "[2]": {"tested_on": "phosphorylated peptide p-K2"}}, "data": [{"substance": "recombinant human TPK-I expressed in Escherichia coli BL21(DE3) from pET3C/TPKI (partially purified)", "values": [{"measurement": "phosphoric acid incorporated into tau-protein (phosphorylating method I)", "setting": "[1]", "value": "1.2 moles of phosphoric acid was incorporated into one molecule of tau-protein"}, {"measurement": "phosphorylation of peptide", "setting": "[2]", "value": "the phosphorylation of p-Ka proceeded"}, {"measurement": "phosphorylation of peptide", "setting": "Peptide K2", "value": "that of K2 hardly proceeded"}]}, {"substance": "recombinant human-originated tau-protein kinase I expressed in Sf9 insect cells (partially purified)", "values": [{"measurement": "amount of phosphoric acid incorporated in tau-protein (phosphorylating method I, 32P)", "setting": "[1]", "value": "incorporation of tau-protein into phosphoric acid was confirmed"}, {"measurement": "phosphorylation of peptide (phosphorylating method I)", "setting": "[2]", "value": "the progress of phosphorylation of p-K2 was clearly noted"}, {"measurement": "initial speed of phosphorylation of peptide (phosphorylating method I)", "setting": "Peptide K2", "value": "phosphorylation of K2 was slow and its initial speed was about one-tenth of that of p-K2"}]}, {"substance": "tau-protein kinase II (TPK-II) purified from bovine brain microtubule", "values": [{"measurement": "phosphorylation of peptide (phosphorylating method II)", "setting": "Peptide K2", "value": "phosphorylated peptide (hereinafter, abbreviated as \"p-K2\") was obtained"}]}]}
